Results: US20030167129A1 (published 2003)
Where no end group is shown, it is not given here. [ ]: non-standard residue; d: D form. 1Nal = N[C@@H](Cc1cccc2ccccc12)C(=O)O; 2Nal = N[C@@H](Cc1ccc2ccccc2c1)C(=O)O; Tic = O=C(O)[C@@H]1Cc2ccccc2CN1; Aib = CC(C)(N)C(=O)O

target: CXCR4 as HIV co-receptor in the HIV infectivity assay (HELA / Magi cells) (UniProt P61073 1-352, limits assumed); assay: cell-based or functional assay

Row | Binder | inhibition of HIV IIIb infection, EC50
1 | ARSLI[2Nal]R[Tic]ARR[2Nal]RR-NH2 (N-terminus assumed; SMILES CC[C@H](C)[C@H](NC(=O)[C@H](CC(C)C)NC(=O)[C@H](CO)NC(=O)[C@H](CCCNC(=N)N)NC(=O)[C@H](C)N)C(=O)N[C@@H](Cc1ccc2ccccc2c1)C(=O)N[C@@H](CCCNC(=N)N)C(=O)N1Cc2ccccc2C[C@H]1C(=O)N[C@@H](C)C(=O)N[C@@H](CCCNC(=N)N)C(=O)N[C@@H](CCCNC(=N)N)C(=O)N[C@@H](Cc1ccc2ccccc2c1)C(=O)N[C@@H](CCCNC(=N)N)C(=O)N[C@@H](CCCNC(=N)N)C(N)=O) [CPI-1500] | 280 nM

target: T1, CXCR4 (CXC chemokine receptor 4), tagged construct not stated (human, UniProt P61073 1-352); assay: inhibition of [125I]-SDF1α binding to CXCR4
T1 construct: whole, on cells; Receptor of the radioligand displacement assays of the peptides; in insect cell membranes; also called the receptor; CXCR4-containing membranes

Row | Binder | binding result
2 | MARSLIARPAKAKKK [CPI-1304] | binds
3 | MARSLIWGPAKAKKK [CPI-1334] | binds
4 | MAASLIWRPAKAKKK [CPI-1329] | binds
5 | MARSLIWAPAKAKKK [CPI-1305] | binds
6 | MARSTIWRPAKAKKK [CPI-1298] | binds
7 | MARSLIWRPAAAKKK [CPI-1306] | binds
8 | MARALIWRPAKAKKK [CPI-1328] | binds
9 | MARSLIWRPAKAKKA [CPI-1312] | binds
10 | MARSLIWRPAKAKAK [CPI-1310] | binds
11 | MAASLIWRPAKAKKK [SEQ ID NO 12 (Table 1 row without a CPI number)] | binds
12 | MARSLIWRAAKAKKK [CPI-1295] | binds
13 | MARSFIWRPAKAKKK [CPI-1296] | binds
14 | MARSLIWRPAKAAKK [CPI-1301] | binds
15 | MARSAIWRPAKAKKK [CPI-1307] | binds
16 | MARSLAWRPAKAKKK [CPI-1308] | binds
17 | ARSLIWRPARRRRR [CPI-1297] | binds
18 | MARSLIWRPAKARRR [CPI-1289] | binds
19 | ARSIWRLARRWRR [CPI-1382] | binds
20 | MARSLIWRPAREWRR [CPI-1377] | binds
21 | MARSLIWRP[Aib]KAKKK [CPI-1303] | binds
22 | MARSLIWRPAERWRR [CPI-1373] | binds
23 | RSLIWRPAKAKKK [CPI-1247] | binds

Row | Binder | binding result
24 | ISLIWRPAKAKKK [CPI-1248] | binds
25 | FHEFRSLIWRPAKAKKK [CPI-1300] | binds
26 | YHEFRSLIWRPAKAKKK [CPI-1299] | binds
27 | MARSLI[2Nal]RPAKAKKK [CPI-1309] | binds
28 | MARSLIWR[Tic]AKAKKK [CPI-1302] | binds
29 | FARSLIERAARRWRR [CPI-1330] | binds
30 | FARSLI[2Nal]EAARR[2Nal]RR (also called FARSLI(2-Nal)EAARR(2-Nal)RR) [CPI-1389] | binds
31 | ARSLI[2Nal]RPARR[2Nal]RR (also called ARSLI(2-Nal)RPARR(2-Nal)RR) [CPI-1701] | binds
32 | ARSLI[2Nal]RHARR[2Nal]RR (also called ARSLI(2-Nal)RHARR(2-Nal)RR) [CPI-1443] | binds
33 | Ac-ARSLI[2Nal]RAARR[2Nal]RR (also called Ac-ARSLI(2-Nal)RAARR(2-Nal)RR) [CPI-1366] | binds
34 | ARSLIWRPAKAKKK [CPI-1292] | binds
35 | FARSLI[2Nal]AARR[2Nal]RR [CPI-1390] | binds
36 | ARSLI[2Nal]R[Tic]ARR[2Nal]RR [CPI-1458] | binds
37 | KKKARSLIWRPAKAKKK [CPI-1331] | binds
38 | MAESLIWRPARRWRR [CPI-1374] | binds
39 | RSLIWRPAK [CPI-1250] | binds
40 | MARSLIWRPAKKK [CPI-1249] | binds
41 | MARSLIWRPARRRRR [CPI-1332] | binds
42 | RRARSLI[2Nal]RAARR[2Nal]RR (also called RRARSLI(2-Nal)RAARR(2-Nal)RR) [CPI-1456] | binds
43 | MARSLIWEPARRWRR [CPI-1372] | binds
44 | ARSLIWRLARRWRR [CPI-1425] | binds
45 | MARSLI[1Nal]RPAKAKKK [CPI-1291] | binds

target: T1, CXCR4 (CXC chemokine receptor 4), …; assay: radioligand displacement of [125I]-SDF-1 from CXCR4

Row | Binder | IC50
46 | MARSLIWRPAKAKKK (Original 15-mer consensus peptide; also called M-A-R-S-L-I-W-R-P-A-K-A-K-K-K) [CPI-1221] | ~60000 nM

target: T1, CXCR4 (CXC chemokine receptor 4), …; assay: binding inhibition curves, [125I]-SDF1α displacement

Row | Binder | binding result
47 | ARSLI[2Nal]RAARR[2Nal]RR (also called ARSLI(2-Nal)RAARR(2-Nal)RR) [CPI-1365] | binds

target: T2, SDF-1α (UniProt P48061-2 22-89, 125I label on the radioligand form); assay: radioligand saturation binding, [125I]-SDF-1α on membrane preparations of GST-CXCR4 (High Five)
T2 construct: Labelled and unlabelled forms are kept as one molecule
T2 sequence (P48061 22-89 limits assumed): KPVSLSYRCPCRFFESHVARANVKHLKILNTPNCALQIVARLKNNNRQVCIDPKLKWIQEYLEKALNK
Procedure: Whole cells from Sf9 and High five cell lines were lysed using hypotonic buffers (10 mM Tris, pH 7.4, 5 mM EDTA), and membrane preparations were made by homogenization and centrifugation using standard techniques known to those skilled in the art. […] For filtration and washing, the reaction was transferred to Millipore Multiscreen filter plates (HATF 0.45 μm; pre-blocked with 10% BSA) (Bedford, Mass.), filtered using vacuum, washed 4-5 times with 200 μL ice-cold buffer, and radioactive counts bound were detected using scintillation counting. All points were done in triplicate. Uninfected cells were used as a control for this experiment. […] Analyses of KD and IC₅₀ were performed using non-linear curve fitting in Kaleidagraph (software program sold by Synergy Software, Reading, Pa.).

Row | Binder | Kd
48 | CXCR4-GST (receptor, human, UniProt P61073 1-352, looked up, whole, on cells; Full-length receptor expressed by baculovirus in High Five or Sf9 insect cells; assayed as membrane preparations or solubilized and immobilized on glutathione resin; also called GST-CXCR4 (High Five); CXCR4 with C-terminal GST tag; not shown: C-terminal GST tag) MEGISIYTSDNYTEEMGSGDYDSMKEPCFREENANFNKIFLPTIYSIIFLTGIVGNGLVILVMGYQKKLRSMTDKYRLHLSVADLLFVITLPFWAVDAVANWYFGNFLCKAVHVIYTVNLYSSVLILAFISLDRYLAIVHATNSQRPRKLLAEKVVYVGVWIPALLLTIPDFIFANVSEADDRYICDRFYPNDLWVVVFQFQHIMVGLILPGIVILSCYCIIISKLSHSKGHQKRKALKTTVILILAFFACWLPYYIGISIDSFILLEIIKQGCEFENTVHKWISITEALAFFHCCLNPILYAFLGAKFKTSAQHALTSVSRGSSLKILSKGKRGGHSSVSTESESSSFHSS | 3.27 nM
